B1: proMMP-9 purified from THP-1 cells (enzyme, human (endogenous in THP-1), UniProt P14780 20-707, looked up)
chain: APRQRQSTLVLFPGDLRTNLTDRQLAEEYLYRYGYTRVAEMRGESKSLGPALLLLQKQLSLPETGELDSATLKAMRTPRCGVPDLGRFQTFEGDLKWHHHNITYWIQNYSEDLPRAVIDDAFARAFALWSAVTPLTFTRVYSRDADIVIQFGVAEHGDGYPFDGKDGLLAHAFPPGPGIQGDAHFDDDELWSLGKGVVVPTRFGNADGAACHFPFIFEGRSYSACTTDGRSDGLPWCSTTANYDTDDRFGFCPSERLYTQDGNADGKPCQFPFIFQGQSYSACTTDGRSDGYRWCATTANYDRDKLFGFCPTRADSTVMGGNSAGELCVFPFTFLGKEYSTCTSEGRGDGRLWCATTSNFDSDKKWGFCPDQGYSLFLVAAHEFGHALGLDHSSVPEALMYPMYRFTEGPPLHKDDVNGIRHLYGPRPEPEPRPPTTTTPQPTAPPTVCPTGPPTVHPSERPTAGPTGPPSAGPTGPPTAGPSTATTVPLSPVDDACNVNIFDAIAEIGNQLYLFKDGKYWRFSEGRGSRPQGPFLIADKWPALPRKLDSVFEERLSKKLFFFSGRQVWVYTGASVLGPRRLDKLGLGADVAQVTGALRSGRGKMLLFSGRRLWRFDVKAQMVDPRSASEVDRMFPGVPLDTHDVFQYREKAYFCQDRFYWRVSSRSELNQVDQVGYVTYDILQCPED
notes: matrix metalloprotease-9 proenzyme, human; pre domain cleaved off, the mature proenzyme is 20-707; the preparation holds a small amount of TIMP-1; monomer and reduction-sensitive homomultimer; also called pMMP-9; promatrix metalloprotease-9; source: purified from conditioned medium of PMA-stimulated THP-1 cells (Q-Sepharose pass-through, gelatin-Sepharose)
B2: recombinant full-length proMMP-9 (enzyme, human, UniProt P14780 20-707, looked up)
chain: B1 chain
notes: matrix metalloprotease-9 proenzyme, human, full-length; pre domain cleaved off, the mature proenzyme is 20-707; also called rpMMP-9; source: Sf9, baculovirus, purified (gelatin-Sepharose)
B3: HPX peptide 41 with D609 mutated (peptide, UniProt P14780 601-620, looked up)
peptide: LDKLGLGAAVAQVTGALRSG
notes: MMP-9 HPX domain, mutated 20-mer of spot 41; source: synthetic peptide on a cellulose membrane
B4: recombinant proMMP-9 lacking the HPX domain (domain or fragment, human, UniProt P14780 20-515, looked up)
chain: APRQRQSTLVLFPGDLRTNLTDRQLAEEYLYRYGYTRVAEMRGESKSLGPALLLLQKQLSLPETGELDSATLKAMRTPRCGVPDLGRFQTFEGDLKWHHHNITYWIQNYSEDLPRAVIDDAFARAFALWSAVTPLTFTRVYSRDADIVIQFGVAEHGDGYPFDGKDGLLAHAFPPGPGIQGDAHFDDDELWSLGKGVVVPTRFGNADGAACHFPFIFEGRSYSACTTDGRSDGLPWCSTTANYDTDDRFGFCPSERLYTQDGNADGKPCQFPFIFQGQSYSACTTDGRSDGYRWCATTANYDRDKLFGFCPTRADSTVMGGNSAGELCVFPFTFLGKEYSTCTSEGRGDGRLWCATTSNFDSDKKWGFCPDQGYSLFLVAAHEFGHALGLDHSSVPEALMYPMYRFTEGPPLHKDDVNGIRHLYGPRPEPEPRPPTTTTPQPTAPPTVCPTGPPTVHPSERPTAGPTGPPSAGPTGPPTAGPSTATTVPLSPVDDA
notes: MMP-9 proenzyme, human; stop codon behind the codon for A515; the mature proenzyme starts at 20; also called rpMMP-9ΔHPX; proMMP-9ΔHPX; source: Sf9, baculovirus, purified (gelatin-Sepharose)
B5: recombinant human His-tagged serglycin (natural protein, UniProt P10124 28-158, looked up)
chain: YPTRRARYQWVRCNPDSNSANCLEEKGPMFELLPGESNKIPRLRTDLFPKTRIQDLNRIFPLSEDYSGSGFGSGSGSGSGSGSGFLTEMEQDYQLVDESDAFHDNLRSLDRNLPSDSQDLGQHGLEEDFML
notes: serglycin core protein, human, the tag stands instead of the signal peptide; no GAG chains; numbers count on: the mature protein (1-131); also called Ht-SG; SG core protein; source: bought: ProSpec (produced in Escherichia coli)
B6: SG peptide 54 (peptide, UniProt P10124 134-153, looked up)
peptide: RSLDRNLPSDSQDLGQHGLE
notes: serglycin core protein, spot 54 of the 20-mer walk with two-residue shift; numbers count on: the mature protein (1-131); source: synthetic peptide on a cellulose membrane
B7: HPX peptide 69 with Y672 mutated (peptide, UniProt P14780 657-676, looked up)
peptide: VPLDTHDVFQYREKAAFCQD
notes: MMP-9 HPX domain, mutated 20-mer of spot 69; source: synthetic peptide on a cellulose membrane
B8: SG peptide 21 with D46 changed to A (peptide, UniProt P10124 68-87, looked up)
peptide: PRLRTALFPKTRIQDLNRIF
notes: serglycin core protein, mutated 20-mer of spot 21; numbers count on: the mature protein (1-131); source: synthetic peptide on a cellulose membrane
B9: HPX peptide 69 with F673 mutated (peptide, UniProt P14780 657-676, looked up)
peptide: VPLDTHDVFQYREKAYGCQD
notes: as for B7
B10: SG peptide 53 (peptide, UniProt P10124 132-151, looked up)
peptide: NLRSLDRNLPSDSQDLGQHG
notes: serglycin core protein, spot 53 of the 20-mer walk with two-residue shift; numbers count on: the mature protein (1-131); source: synthetic peptide on a cellulose membrane
B11: SG peptide 23 with D46 changed to A (peptide, UniProt P10124 72-91, looked up)
peptide: TALFPKTRIQDLNRIFPLSE
notes: serglycin core protein, mutated 20-mer of spot 23; numbers count on: the mature protein (1-131); source: synthetic peptide on a cellulose membrane

Series [1] concerns the molecule itself. The experiment in a line: SDS-PAGE, Western blotting and gelatin zymography under non-reducing and reducing conditions; purified preparations; SDS-stable, reduction-sensitive homomultimer beside the monomer. A general note: Immunoblotting shows a protein as a band on a membrane.
Series [2] concerns the target B5. The experiment in a line: peptide or protein array; mutated FnII and HPX 20-mer peptides on cellulose, incubated with Ht-SG; antibodies against SG. Particulars: both partners purified.
In series [3] the target is B1. In words: far-Western, overlay or dot blot; slot blot: 200 ng Ht-SG on a polyvinyl difluoride membrane, blocked with milk powder, incubated with pMMP-9 for 2.5 h at room temperature; detected with antibody against proMMP-9. Particulars: both partners purified.
The target of series [4] is B1. In words: peptide or protein array; 20-mer walk of the SG core protein on cellulose, two-residue shift; 8.8 ul of 11.2 ug/mL proMMP-9 in 10 mL blocking buffer, 1-4 h, room temperature; antibody against MMP-9. As to conditions: both partners purified.
Series [5] addresses B1. In words: peptide or protein array; mutated SG 20-mer peptides on cellulose, incubated with pMMP-9; antibody against MMP-9. Particulars: both partners purified.

For B1, the binding result in series [1] was “binds”.

With B2, the binding result in series [1] is “binds”.

For the molecule B3, the binding result in series [2] is “binds”.

Consider B4, for which the binding result in series [1] is “binds”.

B5: the binding result in series [3] is “binds”.

As for B6, the binding result in series [4] was “binds”.

Regarding B7, the binding result in series [2] is recorded as “binds”.

With B8, the binding result in series [5] is reported as “binds”.

On to B9, for which the binding result in series [2] is listed as “binds”.

Regarding B10, the binding result in series [4] was “binds”.

For the molecule B11, the binding result in series [5] is given as “binds”.

The values are drawn from PMC7352350, “Molecular Interactions Stabilizing the Promatrix Metalloprotease-9·Serglycin Heteromer” (International Journal of Molecular Sciences, 2020).
